Assay results published in patent US20150086555A1 (THERACLONE SCIENCES, published 2015).

B1: TCN-540 (5060_F05) (antibody, V domains shown)
VH: QVQLVQSGGGVVQPGRSLRLSCAASGFTFSSYAMHWVRQAPGKGLEWVAIISYDGNDQYYTDSVKGRFTISRDSSKVYLQMHRLRPEDTAVYYCAKEFETSGYFHGSFDYWGQGILVTVSS
VL: QSALTQPASVSGSPGQSITISCTGTSSDVGGYNYVSWYQQHPGKAPKLLIYEVTNWPSGVSNRFSGSKSGNTASLTISGLQAEDEADYYCSSYAGSSTWVFGGGTRVTVL
B2: TCN-534 (5249_B02) (antibody, V domains shown)
VH: QVQLVQSGAEVKKPGSSVKVSCRESGGTFNGYTITWVRQAPGQGLEWMGGIIPMMGTVNYAQKLQGRVTITTDYFTKTAYMDLNNLRSEDTAMYYCVKIRYTGQQLLWGQGTLVTVSS
VL: DIQMTQSPSTLSASIGDRVTITCRASQSIASWLAWYQQKPGKAPKLLIYEAVNLESGVPSRFSGSGSGTDFTLTISSLQPDDFATYFCQHYGTISQTFGGGTKVEIK
B3: TCN-539 (5056_A08) (antibody, V domains shown)
VH: QVQLVESGGGVVQPGRSLRLSCAASEITFITYAMHWVRQAPGKGLEWVALISDDGSNKFYADSVKGRFTISRDNSKNTLYLQMNSLRAEDTAAYYCAREGVYFDSGTYRGYFDYWGQETLVTVSS
VL: EIVLTQSPATLSLSPGERATLSCRASQSVSSYLAWYQQKPGQAPRLLIYDASNRATGIPARFSGSGSGTDFTLTISSLEPEDFAVYYCQQRSHWPPITFGQGTRLEIK
B4: TCN-504 (3251_K17) (antibody, V domains shown)
VH: QVQLQESGPGLVKPSETLSLTCAVSGVSISNIDFYWGWIRQPPGKGLEWIGNIYYTGITFYNPSLSSRVAISIDTSKNQFSLTLTSVTAADTAMYYCARHYGDSEAINDAFDIWGQGTMLTVSS
VL: EIVMTQSPATLSVSPGERATLSCRASQSVGNSLAWYQQRPGQAPRLLIYGASTRATGIPPRFSGSGSGTEFTLTISSLQTEDFAVYYCQQYINWRPLSFGGGTKVEIK
B5: TCN-535 (5246_P19) (antibody, V domains shown)
VH: QVQLVQSGSEVKKPGTSVKVSCTASGSVFTNYGISWVRQAPGQGLEWMGGIIPLFGAAKYAQKFQGRVTITADESTKTVYMELSRLTSKDTAIYFCAKAPRVYEYYFDQWGQGTPVTVSS
VL: EIVLTQSPGTLSLSPGERATLSCRASQSVSSSQLAWYQQKPGQAPRLIIYGASTRATGIPDRFSGSGSGTDFTLTIGRLEPEDFAVFFCQQYSTSPPTFGQGTKVDFK
B6: TCN-537 (3194_D21) (antibody, V domains shown)
VH: QVQLQQWGSGLLKPSETLSLTCAVYGGSFRDDYWTWIRQPPGKGLEWIGEINHSGRTNYNPSLKSRVTISVDTSLKQFSLKVISVTAADTAVYYCARGTSHVSRYFDWLPPTNWFDPWGQGTQVTVSS
VL: DIVLTQSPGTLSLSPGERATLSCRASQSVSSSYLAWYQQKPGQAPRLVMYGAATRATGIPDRFSGSGSGPDFTLTISRLEPEDFAMYYCQQYGNSPITFGQGTRLEIK
B7: TCN-538 (3206_O17) (antibody, V domains shown)
VH: QITLKESGPTLVKPTQTLTLTCVFSGFSLSITGVRVGWIRQPPGKALEWLALISWDDEKHYSPSLQSRLTITKDTSKNQVVLTMTNLDPVDTATYYCARSTDRGHVLRYFGWMLPGDAFDVWGQGTMVTVSS
VL: DIVMTQSPDFLPVSLGERATINCKSSQRVLYSSNNKNYLAWYQLKPGQPPKLIIYWASTRESGVPDRFSGSGSGTEFTLTISSLQAEDVAVYYCQQYYSRPYTFGQGTKLEIK
B8: TCN-536 (5095_N01) (antibody, V domains shown)
VH: QVQLQQWGAGLLKPSETLSLTCAVYGGSFSVSGYYWSWIRQPPGRGLEWIGEISHGGSTNYNPSLKSRVTISVDTTKNQFSLRLSSVTAADTAVYYCARGTDPDTEVYCRVGNCAAFDYWGQGSLVTVSS
VL: EIILAQSPGTLSLSPGERATLSCRASQFVSTRSLAWYQQRPGQAPRLLIYGASSRATGIPDRFSGSGSGTDFTLTISRLEPEDFAVYYCQHYGYSPRYAFGQGSKVEIK
B9: TCN-550 (5096_F06) (antibody, V domains shown)
VH: QVQLQESGPGLVKPSETLSLTCTVSGASINSHYWSWIRQPPGKGLEWIGYVYYSGSTTYNPSLKSRVTLSVDTSKNQFSLNLSSVTAADTAFYYCARHPYDVLTGSGDWFDPWGQGTLVTVSS
VL: SYVLTQAPSVSVAPGQTARITCGGNAIGSKKVHWYQHKAGQAPVLVVYDDTDRPSGIPERFSGSNSWSTATLTINRVEAGDEADYYCQVWDFTIDHVVFGGGTKLTVL
B10: TCN-549 (5092_P04) (antibody, V domains shown)
VH: QVQLVQSGAEVKKPGASVKVSCKASGYTFTGYYMHWVRQAPGQGLEWMGWINPNSGDTNYAQKFQGRVTMTRDTSITTAYMELSSLRSDDTAVYYCARDSPYSSSWSFFDYWGQGPLVTVSS
VL: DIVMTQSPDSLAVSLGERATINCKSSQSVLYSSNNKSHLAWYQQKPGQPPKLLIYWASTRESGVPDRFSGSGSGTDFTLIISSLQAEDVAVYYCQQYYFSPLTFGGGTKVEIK
B11: TCN-523 (5248_A17) (antibody, V domains shown)
VH: QVQLVQSGAEVKKPGSSVKVSCKASGGSFSNYAFSWVRQAPGQGLEWMGGTIPLLGTTNYAQKFQGRVTISADQFTSTAYMELGSLRSEDTAVYYCTRRKMTTAFDSWGQGTLVTVSS
VL: QPVLTQPPSASASLGASVTLTCTLSSAYSNYKVDWYQQRPGKGPRFVMRVGTGGIVGSKGDGIPDRFSVLGSGLNRYLTIKNIQEEDESDYHCGADHGSGSNFVSPYVFGGGTKLTVL
B12: TCN-556 (5089_K12) (antibody, V domains shown)
VH: QVQLVQSGAEVKKPGASVKVSCKASGYTFIGYDMHWVRQAPGQGLEWMGWINAKRGGTNYAQKFQGRVTMTRDTSISTAYMELNSLRSDDTAVYYCARGVGSRTTIFGVLNPEFDYWGQGTLVTVSS
VL: QSALTQPPSASGSPGQSVTISCTGSSSDVGGYDYVSWYQQHPGKAPKLLIYEVTKRPSGVPDRFSGSKSGNTASLTVSGLQAEDEADYYCSSYAGNYNHVFGPGTKVTVL
B13: TCN-547 (5092_F11) (antibody, V domains shown)
VH: QVQLQESGPGLVKPSQTLSLTCTVSGDSISSVDHYWSWIRQHPVKGLEWIGFMYYSASTYYNPSLKSRVTISTDTSKNQFSLRLSSVTAADTAVYYCARGTCAGDCSLHYYYYGLDVWGQGRTVTVSS
VL: DIQMTQSPSSLSASVGDRVTITCRASQSISSYLNWYQHKPGKAPKVLMYAVSILQSGVPSRFSGSGSGADFTLTISSLQPEDFATYYCQQSYSSPLTFGGGTKVEIK
B14: TCN-542 (5079_A16) (antibody, V domains shown)
VH: QVQLQESGPGLVKPSQTLSLTCTVSGGSISSGNYYWNWVRQHPGKGLEWIGYIYYRGSTFYNPSLKSRVTISIDTSKNQFSLRLSSVTAADTAVYYCAKDTRSSLDNYQYGMDVWGQGTTVTVSS
VL: QTVVTQEPSLTVSPGGTVTLTCASSTGAVTSSYFPNWFQQKPGQAPRPLIYSTTIRHSWTPARFSGSLLGGKAALTLSGVQPEDEADYYCLLYSGGDPVAFGGGTKLTVL
B15: TCN-548 (5092_P01) (antibody, V domains shown)
VH: QVQLQESGPGLVKPSETLSLTCTVSSGPMSDYYWSWIRQPPGKGLEWIGHVSVSHGGRTKSNPSVMSRVTISVETSKNQFSLKLTSVTAADTAVYYCARLNYYDRSGYHSPDGPSNNWFDPWGQGTLVTVSS
VL: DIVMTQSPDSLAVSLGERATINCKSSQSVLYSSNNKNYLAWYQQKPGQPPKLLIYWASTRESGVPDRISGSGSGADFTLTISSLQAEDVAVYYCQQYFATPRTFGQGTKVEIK
B16: TCN-544 (5082_A19) (antibody, V domains shown)
VH: QVQLQESGPGLVKPSETLSLTCTVSRGSIGHYFWSWIRQPPGKGLEWIGYISYSGSTKYNPSLRSRVTISVDTSKNQFSLNLNSVTATDTALYYCAREDYDILTGAGPGMEVWGQGTTVTVSS
VL: QSMLTQPPSASGTPGQRVTISCSGSSSNIGSNTVNWFKHLPGTAPKLLIYRNDLRPSGVPDRFSGSKSGTSASLAISGLQSEDEADYYCATWDDSLNGFYVFGTGTKVTVL
B17: TCN-545 (5082_I15) (antibody, V domains shown)
VH: QVQLQQWGAGLLKPSETLSLSCAVFGGSFSDYYWTWIRQPPGKGLEWIGEIKHSGRTNYNPSLESRVTISVDTSKNQFSLKLSSVTAADTAIYYCARGTDPDTEGYCRSGSCSAFDFWGQGTLVTVSS
VL: EIVLTQSPGTLSLSPGERATLSCRASHFVNYRSLAWYQQTPGQVPRLLIYGASTRATGIPDRFSGSGSGTDFTLTISRLEPEDFAVYFCQQYGGSPRYTFGQGTRLEIK
B18: TCN-543 (5081_G23) (antibody, V domains shown)
VH: QVHLVQSGAEVRKPGDSVKVSCKTSGYTFSTYPVAWVRQVPGQGLEWMGWISTYNGNTNFAQNFQGRVTLTTDTTTNTAYMEVRSLKFDDTAVYYCARVEGSYRDFWNNQNRFDPWGQGTLVTVSS
VL: SYVLTQPPSVSVAPGQTARISCGGSNIGGKSVHWYQQKPGQAPVLVVYDDSGRPSGIPERFSGSNSGDTATLTISRVEAGDEADYFCQVWDNFGGVFGTGTKVTVL
B19: TCN-546 (5089_L08) (antibody, V domains shown)
VH: QVQLQQWGAGLLKPSETLSLTCGVYGGSLSDYYWSWIRQPPGKGLEWIGEINHSGGTNYNPSLKRRVTISVDTSKKQFSLKMNSVTAADTAVYYCARGTDPDTEVYCRAGNCAAFDFWGQGTLVTVSS
VL: EIVLTQSPGTLSLSPGERATLSCRASHFVIGRAVAWYQQKPGQAPRLLIYGASSRATGIPDRFSGSGSGTDFTLTISRLETEDFAVFYCQHYGSSPRYAFGQGTKLEIK
B20: TCN-557 (5081_A04) (antibody, V domains shown)
VH: QVQLVQSGAEVKKPGASVKVSCKASGHTFTGYYIHWVRQAPGQGLEWMGWINPDSGATSSAQNFQGRVTMTGDTSSSTAYMELSRLSFDDTAVYYCARVLFTSPFDFWGEGTLVTVSS
VL: QAVVTQEPSLAVSPGGTVTLTCGSSTGAVTRGHYPYWFQQKPGQAPRALIYDSAGNRHSWTPARFSGSLLGGKAALTLSGAQPEDEAEYYCLLSYSGVWVFGGGTKLTVL
B21: TCN-552 (5249_I23) (antibody, V domains shown)
VH: QVQVVQSGAEVKKPGSSVRVSCQASGGTFMNYAIIWVRRAPGQGLEWMGGIIPVFPTPNYAQMFQGRVTISTDESRSTSFLELTNLRYEDTAVYYCARRIYHGGNSGFDFWGQGTLVTVSS
VL: EIVLTQSPATLSLSPGERATLSCRASQSVGNYLAWYQQKPGQAPRLLIYDSSNRAPGIPARFSGSGSGTDFTLTISSLAPEDFAVYYCQQRSKWPPMYSFGHGTKLEIK
B22: TCN-553 (5261_C18) (antibody, V domains shown)
VH: QVQVVQSGTEVKKPGSSVKVSCQTSGGRFMSYAITWVRQAPGQGLEWMGGIVPVFGTANYAQKFQGRVTITTDDSTRTAYMELSSLRSEDTAVYYCGFRYGSGYGFDSWGQGTLVTVSS
VL: EIVLTQSPGTLSLSPGERATLSCRASQSVSSSYLAWYQKKPGQAPRLLIYGASTRATGIPDRFTGSGSGTDFTLSISRLEPEDFAVYYCQHFGTSVFTFGGGTKVEIK

What follows are binders tested against hemagglutinin on live influenza A virus, A/California/4/09 H1N1 (Influenza A virus …) (assay: cell-based or functional assay).

Question: Which “% Neutralization” value does the source give for B1 here?
Answer: Its value is 0%.

Question: How did the “% Neutralization” value turn out when B2 was run?
Answer: Its value is 96.4%.

Question: For B3, which “% Neutralization” value is on record?
Answer: Its value is 0%.

Question: B4 was tested. Which “% Neutralization” value did it give?
Answer: Its value is 0%.

Question: B5 was tested. Which “% Neutralization” value did it give?
Answer: Its value is 97.3%.

Question: With B6 as the binder, how does the “% Neutralization” value read?
Answer: The value was 71%.

Question: Which “% Neutralization” value does the source give for B7 here?
Answer: The value was 66%.

Question: Which “% Neutralization” value does the source give for B8 here?
Answer: Its value is 18.8%.

What follows are binders tested against hemagglutinin (HA) of influenza A/Japan/305/57 (H2N2) on whole virions (Influenza A virus A/Japan/305/1957(H2N2), UniProt P03451 16-562) (assay: ELISA; BCC supernatant on coated inactivated whole virions).

Question: For B9, which “ELISA virus binding (OD450)” value is on record?
Answer: Its value is 0.06 OD450.

Question: For B10, which “ELISA virus binding (OD450)” value is on record?
Answer: The value was 0.08 OD450.

Question: With B11 as the binder, how does the “ELISA virus binding (OD450)” value read?
Answer: The value was 1.62 OD450.

Question: B12 was tested. Which “ELISA virus binding (OD450)” value did it give?
Answer: The value was 2.41 OD450.

Question: How did the “ELISA virus binding (OD450)” value turn out when B13 was run?
Answer: The value was 0.07 OD450.

Question: For B14, which “ELISA virus binding (OD450)” value is on record?
Answer: Its value is 0.08 OD450.

Question: With B15 as the binder, how does the “ELISA virus binding (OD450)” value read?
Answer: The value was 0.09 OD450.

Question: B16 was tested. Which “ELISA virus binding (OD450)” value did it give?
Answer: Its value is 0.07 OD450.

Question: For B17, which “ELISA virus binding (OD450)” value is on record?
Answer: Its value is 0.06 OD450.

Question: B18 was tested. Which “ELISA virus binding (OD450)” value did it give?
Answer: The value was 3.62 OD450.

Question: B19 was tested. Which “ELISA virus binding (OD450)” value did it give?
Answer: Its value is 0.06 OD450.

Question: For B20, which “ELISA virus binding (OD450)” value is on record?
Answer: The value was 2.7 OD450.

Question: Which “ELISA virus binding (OD450)” value does the source give for B21 here?
Answer: The value was 0.71 OD450.

Question: With B22 as the binder, how does the “ELISA virus binding (OD450)” value read?
Answer: The value was 2.54 OD450.
